This is an account of results in paper doi:10.1101/2023.06.07.543977.

The data set addresses T1, mKu (mycobacterial Ku) (Mycobacterium tuberculosis, UniProt P9WKD9 1-273).
T1 sequence: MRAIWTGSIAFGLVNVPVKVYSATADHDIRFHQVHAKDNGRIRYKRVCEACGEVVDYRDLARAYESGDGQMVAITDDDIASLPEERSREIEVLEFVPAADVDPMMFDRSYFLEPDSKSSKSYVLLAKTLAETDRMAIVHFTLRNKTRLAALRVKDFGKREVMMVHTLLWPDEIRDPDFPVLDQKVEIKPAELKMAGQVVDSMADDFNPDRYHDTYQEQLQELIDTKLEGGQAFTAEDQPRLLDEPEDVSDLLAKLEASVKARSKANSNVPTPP
As to the kind of experiment: SPR. Background: Surface plasmon resonance follows binding to a sensor surface in real time, without labels.

B1: 29 bp dsDNA (dsDNA)
DNA 1: CGAACCAGCTGGCGCATAGCCGCGCTATC
DNA 2: GATAGCGCGGCTATGCGCCAGCTGGTTCG
Consider B1, for which the “apparent K (half saturation)” value was determined as 17.9 ± 4.58 nM.

B2: 20 bp dsDNA (dsDNA)
DNA 1: GTCGTAGCCCACCTGACCGT
DNA 2: ACGGTCAGGTGGGCTACGAC
Take B2: the “apparent K (half saturation)” value was 10.8 ± 2.47 nM.
